From the nanobody polyreactivity screen of Harvey et al. (2022)

Test: yeast display, Sf9 membrane polyspecificity reagent, FACS + sequencing; frameworks hold sequencing errors
Summary of the method: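 Genes from sorted yeast were amplified by colony PCR, read by MiSeq 2 × 250 sequencing and filtered on CDR length. These cells carried a synthetic nanobody library in Saccharomyces cerevisiae BJ5465 and were sorted by FACS into low and high (top ~1%) gates on anti-HA and streptavidin fluorescence. Polyreactivity is labelled according to the gate of origin.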

Row | Sequence | polyreactivity (PSR sort gate)
1 | QVQLVESGGGLVQAGGRLRLSCAASGITLRRNALVWYRQAPGKERELVARITWRGSTYYAESVKGRFTISRDNAKNTVYLQMNSLKPADTAVYYCAADYRSWQPPTKLPPGASDYWGQGTQVTVSS | low polyreactivity
2 | QVQLVESGGGLVQAGGSLRLICAASGIIFSEYAMGWYRQAPGKERELVAVITSGGSTYYADSVKGRFTISRDNAKNTVYLQMNSLKPEDTAVYYCAARGYRYPMYWGQGTQVTVSS | high polyreactivity
3 | QVQLVASGGGLVQAGGSLRLSCAASGRTFKYNTMGWYRQAPGKERELVAVISRSGGRTYYADSVKGRFTISRDNAKNTVYLQMNSLKPEDTAVYYCAKGIPYADPQSAYDDYWGQGTQVTVSS | high polyreactivity
4 | QVQLVESGGGLVQAGGSLRLSCAASGGIFNTYAMGWYRQAPGKEREFVAAISRRGGGTYYADSVKGRFTISRDNAKNTVYLQMNSLKPEDTAVYYCNADDKRGSRGYGSDHWGQGTQVTVSS | high polyreactivity
5 | QVQLVESGGGLVQAGGSLRLSCAASGSNFYVYAMGWYRQAPGKERELVAAIRWSGGSTYYADSVKGRFTISRDNANYPVYLQMNSLKPEDTADYYCAADAHPDSVWYGEYDYWGQGTQLTVSS | low polyreactivity
6 | QVQLVESGGGLVQAGGSLRLSCAASGFSFRYYAMGWYRQAPGKERELVAAISSGGNTRYADSVKGRFTISRDNAKNTVYLQMNSLKPEDTAVYYCARRPGAWKYVYTGDYWGQGTQVTVSS | high polyreactivity
7 | QGQLVESGGGLVQAGGSLRLSCAASGFTFSYYAMGWYRQAPGKERELVAAISRSGGSTYYADSVKGRFTISRDNAKNTVYLQMNSLKPEDTEVYYCAKRIKDRSGEAYVGLYYWGQGTQVTVSS | high polyreactivity
8 | QVQLVESGGGLVQAGGSLRLSCAASGITFGYYAMGWSRQAPGKERELVAAISWSGGRTYYADSVKGRFTMSRDNAKNTVYLQMNSLKPEDTAVYYCAADYWYYRGGYPMDYWGQGTQVTVSS | high polyreactivity
9 | QVQLVESGGGLVRAGGSLRLSCAASGFIFTSYVMGWYRQAPGKERELVAAITSGNSTYYADSVKGRFTISRDNAKNTVYLQMNSLKPEDTAVYYCTADSYHTYYYWYDYWGLGTQVTVSS | low polyreactivity
10 | QVQLVESGGGLVQAGGSLRLSCAASGFTFGWYDMGWYRKATGKERELVASISWSGSSTYYADSVKGRFTISRDNAKNTVYLQMNSLKPEDTAVYYCATPYWRRYDYWGQGTQVTVSS | high polyreactivity
11 | QVQLVESGGGLVQAGGSLRLSCAASGIIFGYYAMGWYRQAPGKERELVAAISKRGGSTNYADSVKGRFTISRDNAKNTVYLQMNSLKPEDTAVYYCAARYPQGGTGKATYVRSRSGYWGQGTQVTVSS | high polyreactivity
12 | QVQLVESGGGLVQAGGSLRLSCAASGRTFSPNSMVWYRPAPGKERELVAAITRSDGRTYYADSVKGRFTISRDNAKNTVYLQMNSLKPEDTAVYYCAVDGYYPPAWYEYDYWGQGTQVTVSS | high polyreactivity
13 | QVQLVESGGGLVQAGGSLRLSCAASGRTLSRYAMGWYRQAPGKEREFVAGISASGGRTYYADSVKGRFTISRDNAKNTVYLQMNSLKPEDTAVYYCAAQLPWAGGKYDYWGQGTQVTVSS | high polyreactivity
14 | QVQLVESGGGLVQAGGSLRLSCAASGSIFERYAMGWYRQAPGKERELVAAISWSGGRTYYADSVKGRFTISRDYAKNTFFLQMNSLNPEDTAVYYCARVVQPGSPIYDYWGQGTQVTVSS | high polyreactivity
15 | QVQLVESWGGLVQAGGSLRLSCAASGMGRYRQAPGKERELVAAINWSGGNTYYADSVKGRFTISRDNAKNTVYLQMNSLIPEDTAVDYCNAVVWVEVPGDYWGQGTQVTVSS | low polyreactivity
16 | QVQLVESGGGLVQAGGSLRLSCAASGSTFKNYVMGWYRQAPGKERELVAAISRSGGRTYYADSVKGRFTISRDNAKNTVYLQMYSLKPEVTAVYYCATPDQVELSSYDYWGEGTQVTVSS | high polyreactivity
17 | QVQLVESGGGLVQAGGSLRLSCAASGFIFADNTMGWNRQAPGKERELVAAISRRGGSTYYADSVKGRFTISRDNAKNTVYLQMNSLKPEDTAVYYCAARPFVKHDYWGQGTQVTVSS | high polyreactivity
18 | QVQLVESGGGLVQAGGSLRLSCAASGITFSGNAMGWYRQAPGKARELVATISQSGGRTYYADSVNGRFTISRDNAKHTVYLQMNSLKPEDTAVYYCARRRMRYTDRGYYYWGQGTQVTVSS | high polyreactivity
19 | QVQLVESGGGLVQAGGSLRLSCAASGSTFWPYAMGWYIQAPGKERELVAAITSSGGSTYYADSVKGRFTISRDNAKNTVYLQMNSLKAEDTAVYYCAADWSNLGAYDYWGQGTQVTVSS | low polyreactivity
20 | QVQLVESGGRLVQAGGSLRLSCDASGSIFAYYAMGGYRQAPGKERELVAAMCSGGGTYYADSVKGRFTISRDKAKTTVYLQMNSLKPEDTAVYYCAADGLWHIFYPGTGVDYWGQGTQVTVSS | low polyreactivity

Row | Sequence | polyreactivity (PSR sort gate)
21 | QVQLVESGGGLVQAGGRLRLSCAASGSTFGWYARGWYRQAPGKERELVATISSGGSTYYADSVKGRFTISRDNAKNTVSLQMNSLKPEDTAVYYCAARIGTGVLPGRGANSHMDFWGHGTQVTVSS | low polyreactivity
22 | QVQLVESGGGLVQAGGSLRLSCAASGSILYNNAMGWYRQAPGKERELVAAIDLSTGSTYYADSVKGRFTISRDNAKNTVYLQMNSLKPEDSSVYYCAAGKPLGSSTKYRPYDYWGQGTQVTVSS | low polyreactivity
23 | QVQLVESGGGLVQAGGSLRLSCAASGRIFNINAMGWYRQAPGKERELVAAITWRSGSTYYADSVKGRFTISRDNAKNTVYLQMKSLKPEDTAVYYCAADFSQTRRPIRFYYWGQGTQVTVSS | high polyreactivity
24 | QVQLVESGGGLVQAGGSLRLSCAASGSTFWVYDMGWYRQAPGKERELVAAISRRGGRTYYADSVKGRFTISRDNAKNTVYLQMNSLKPEDTAVYYCNRRYTQPDTRQWYDYWGQGTQVTVSS | low polyreactivity
25 | QVQLVESGGGLVQAGGSLRLSCAASGRIFYLNGMGWYRQAPGKERELLAAISSSDDSTYYADSVKGRFTISRDNAKNTVYLQMISLKPEDTAVYYCAAGYHHVQNYGDAYYWSELYSWGQGTQVTVSS | low polyreactivity
26 | QVQLVESGGGLVQAGGSLRLSCAASGFTFWRYAMGWYRQAPGKERELVAAISRTGGRTYYADSVKGRFTISRDNAKNTVYLQMNSLKPEDTAVYYCAADWLYDYGEYYYWGQGTQVTVSS | high polyreactivity
27 | QVQLVESGGGLVQAGGSLRLSCAASGSTFYIYAMGWYRQAPGKERELVAAITWSGGSTYYADSVKGRFTISRDNAKNTVYLQMNSQKPEDTAVYYCATKRARYSYDYWGQGTQVTVSS | high polyreactivity
28 | QVQLVESGGGLVQAGGSLRLSCAASGSIFVYNAMGWYRQAPGKERELVAAIDTVGSTNYADSVKGRFTISRDNAKNTVYLQMNSLKPEDTAVYYCAVVTPYWSFYEQVIPSNYWGQGTQVTVSS | low polyreactivity
29 | QVQLVESGGGLVQAGGSLRLSCAASGRTFWVNAMGWYRQAPGKERELVAGITFRGGSTYYADSVKGRFTISRDNAKNTVYLQMYSLKPEDTAVYYCAADVTFVYSGRRVHYFYWGQGTQVTVSS | high polyreactivity
30 | QVQLVETGVGLVQAGGSLRVICAASGLTFYLYAMGWNRQAPGKERELAAAISSTGITNFADSVKGRFTISRDNAKNTVYLQMTSLKPEDTAVYYCNADYHPFFFEFNYWGKGTQVTVSS | high polyreactivity
31 | QLQLVESGGGLVQAGGSLRLSCSASGGTFYRNAMGWSRQAPGKESELVPSISRTGGSTYYADSVKGRFTISRDNAKNTVYLQMNILKPEDTAVYYCANKQPRYSYFDNDYWGQGTQVTVSS | high polyreactivity
32 | QVQLVESGGGLVQAGGSLRLSCAASGRTFFPYAMGWYRQAPGKERELVAAISFRGGRTYYADSVKGRFTISRDNAKNTVYLQMNSLKPEDTAVYYCNKLGTRVYEMDYWGQGTQVTVSS | high polyreactivity
33 | QVQLVESGGGLVQAGGSLRLSCAASGSIFPDNVMGWYRQAPGKEREFVAAISWTDGSTRYADSVKGRFTISRDNAKNTVYLQMNSLKPEDTAVYYCNVGTRASYQEGDYWGQGTQVTVSS | low polyreactivity
34 | QVQLVESGGGLVQAGGSLRLSCAASGRTFHGYAMGWYRQAPGKERELVAAINWRGGSTYYADSVKGRFTISRDNAKNTVYLQMNSLKPEDTAVYYCNKRQYSARVSRSYDYWGQGTQVTVSS | high polyreactivity
35 | QVQLVESGGGLVQAGGSLRLSSAASGSIFRFYTMGWYRQAPGKERELVAAISASGGNTYYADSVKGRFTISRDNAKNTVYLQMNSLKPEDTAVYYCARVKFTKYDYWGQGTQVTVSS | high polyreactivity
36 | QVQLVESGGGLVQAGGSLRLSCAASGSILPVYVMGWYRQAPGKERELVAAISSGGSTTYADSVKGRFTISRDNAKNTVYLQMNSLKPEDTAVYYCNADVVRGYSYIYRWPFRYAYDYWGQGTQVTVSS | low polyreactivity
37 | QVQLVESAGGLVQAGGSLRLSCAASGFIINKYTMGWYRQAPGKERELVAAITWSGGTTYYADSVKGRFTISRDNAKNTVYLQMNSLKPEDTAVYYCAAYYYRGRVGAYDYWGQGTQVTVSS | high polyreactivity
38 | QVQLVESGGCLVQAGGSLRLSCAASGNTFPYYDMGWYRQAPGKERELVAVIRTGDDTNYADSVKGRFTISRDNAKNTVYLQMNSLKPEDTAVYYCAVVGPKGADGLPPYNRMDYWGHGTQVTVSS | low polyreactivity
39 | QVQLVESGGGLVQAGGSLRLSCAASGCTFPRYAMGWYRQAPGKERELVAAISYSGGRTYYADSVKGRFTISRDNAKNTVYLQMNSLKPEDTAVYYCATEASTKRYDYWGQGTQVTVSS | high polyreactivity
40 | QVQLQESGGGLVQAGGSLRLSCAASGSISYPRTMGWYRQAPGKEREFVAGIGVGGTTYYADSVKGRFTISRDNAKNTVYLQMHSLKPEDAAVFYFAVAAFYDKYYVYWGQGTQVTVSC | low polyreactivity
